± gives the standard deviation of the averaged measurements.
What was measured:
[1] = test system: Saccharomyces cerevisiae; assay: protein stability index of tFT-peptide fusion (C-terminal peptide) (PSI (0-1 scale)); higher = more stable (slower turnover)
Experimental: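 MPS profiling in S. cerevisiae of the tFT-X12 degron library: putative degron peptides plus stable controls, 12 aa, fused to the C-terminus of a sfGFP-mCherry timer. Cells are FACS-sorted into 8 mCherry/sfGFP bins and deep-sequenced. PSI runs from 0 (unstable) to 1 (stable). Backgrounds are wild type, das1Δ and doa10Δ at 30 °C, and wild type, das1Δ, cdc34-1 and cdc53-1 at 37 °C; 2-3 technical replicates each.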

[2] = test system: Saccharomyces cerevisiae; assay: as above; conditions: genetic background: wild type; temperature: 30 C
[3] = genetic background: cdc34-1, temperature: 37 C
[4] = genetic background: cdc53-1, temperature: 37 C
[5] = genetic background: das1 deletion, temperature: 30 C
[6] = genetic background: das1 deletion, temperature: 37 C
[7] = genetic background: doa10 deletion, temperature: 30 C
[8] = genetic background: wild type, temperature: 30 C
[9] = genetic background: wild type, temperature: 37 C
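Further: PSI is a weighted mean of sequencing reads over stability bins, variants kept only with over 10 reads, mCherry proximal and sfGFP distal, peptide attached via GGGS linker.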

Sequence	protein stability index [1, 3]	protein stability index [1, 4]	protein stability index [1, 5]	protein stability index [1, 6]	protein stability index [1, 7]	protein stability index [1, 8]	protein stability index [1, 9]	protein stability index [2]
GMGHLSNVCLKT	0.689 ± 0.008	0.765 ± 0.0086	0.639 ± 0.012	0.726 ± 0.0093	0.636 ± 0.026	0.645 ± 0.019	0.706 ± 0.027	0.597 ± 0.17
GRLDHWNKHKYI	0.528 ± 0.031	0.687 ± 0.032	0.64 ± 0.0064	0.783 ± 0.024	0.104 ± 0.013	0.0786 ± 0.026	0.14 ± 0.032	0.184 ± 0.0029
GRWVLALCLVCG	0.165 ± 0.0068	0.199 ± 0.0044	0.202 ± 0.026	0.312 ± 0.0066	0.164 ± 0.0086	0.194 ± 0.026	0.273 ± 0.0044	0.289 ± 0.0051
GSLLNLSLRWLV	0.626 ± 0.012	0.7289 ± 0.0067	0.6638 ± 0.0066	0.739 ± 0.0077	0.13932 ± 9.1e-05	0.138 ± 0.022	0.226 ± 0.0075	0.242 ± 0.0062
GTMGWYSISRRL	0.692 ± 0.052	0.754 ± 0.025	0.681 ± 0.013	0.746 ± 0.012	0.6585 ± 0.004	0.646 ± 0.022	0.729 ± 0.0091	0.519 ± 0.078
GVCRFFCLVFCS	0.544 ± 0.02	0.5349 ± 0.0021	0.507 ± 0.049	0.515 ± 0.018	0.494 ± 0.013	0.441 ± 0.018	0.4723 ± 0.003	0.466 ± 0.036
GVCSFFVCVFFV	0.195 ± 0.0042	0.319 ± 0.034	0.233 ± 0.036	0.41 ± 0.005	0.162 ± 0.008	0.177 ± 0.024	0.303 ± 0.0089	0.291 ± 0.0064
GVFLVWWVGFWV	0.257 ± 0.025	0.401 ± 0.021	0.25 ± 0.035	0.431 ± 0.014	0.223 ± 0.0082	0.238 ± 0.029	0.455 ± 0.047	0.374 ± 0.057
GVLFHIVLHFMV	0.24 ± 0.045	0.277 ± 0.01	0.255 ± 0.028	0.391 ± 0.0053	0.199 ± 0.017	0.194 ± 0.023	0.305 ± 0.029	0.27 ± 0.061
GVMSICRWMISV	0.415 ± 0.0094	0.427 ± 0.012	0.325 ± 0.042	0.4914 ± 0.0034	0.263 ± 0.013	0.275 ± 0.035	0.439 ± 0.017	0.374 ± 0.014
GVQFRRPLIPIY	0.514 ± 0.0065	0.4877 ± 0.0027	0.358 ± 0.03	0.5467 ± 0.0036	0.325 ± 0.011	0.35 ± 0.025	0.517 ± 0.0099	0.445 ± 0.082
GVVCVLGFALFV	0.403 ± 0.026	0.507 ± 0.042	0.293 ± 0.046	0.495 ± 0.0051	0.28 ± 0.014	0.3 ± 0.028	0.473 ± 0.0053	0.413 ± 0.08
GWGVFFVMRIQV	0.1751 ± 0.00088	0.259 ± 0.055	0.225 ± 0.02	0.367 ± 0.017	0.197 ± 0.016	0.198 ± 0.024	0.301 ± 0.029	0.34 ± 0.024
GWLVGLGLVFFT	0.586 ± 0.018	0.664 ± 0.01	0.513 ± 0.033	0.661 ± 0.014	0.488 ± 0.02	0.499 ± 0.031	0.618 ± 0.011	0.514 ± 0.03
GWRRRIWLCRLQ	0.575 ± 0.018	0.741 ± 0.038	0.7 ± 0.013	0.7939 ± 0.004	0.41 ± 0.02	0.412 ± 0.036	0.662 ± 0.054	0.505 ± 0.041

Source: the supplement of paper PMC10724198
